Results on 1 substance are retold here after patent EP3263700A1.

Test in all cases: cell-based or functional assay
Assay [1] deals with purified human coagulation factor X (zymogen) (human) (UniProt P00742).
In assay [2] the target is purified coagulation factor IX (zymogen).
For assay [3], the target named is purified coagulation factor VII (zymogen).

Sequence of UniProt P00742 (P00742 41-179 limits assumed, chain 1 of 2): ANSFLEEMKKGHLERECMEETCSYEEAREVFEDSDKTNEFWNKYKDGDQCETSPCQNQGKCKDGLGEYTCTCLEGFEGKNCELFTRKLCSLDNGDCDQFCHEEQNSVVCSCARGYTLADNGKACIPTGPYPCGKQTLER
Sequence of UniProt P00742 (P00742 183-488 limits assumed, chain 2 of 2): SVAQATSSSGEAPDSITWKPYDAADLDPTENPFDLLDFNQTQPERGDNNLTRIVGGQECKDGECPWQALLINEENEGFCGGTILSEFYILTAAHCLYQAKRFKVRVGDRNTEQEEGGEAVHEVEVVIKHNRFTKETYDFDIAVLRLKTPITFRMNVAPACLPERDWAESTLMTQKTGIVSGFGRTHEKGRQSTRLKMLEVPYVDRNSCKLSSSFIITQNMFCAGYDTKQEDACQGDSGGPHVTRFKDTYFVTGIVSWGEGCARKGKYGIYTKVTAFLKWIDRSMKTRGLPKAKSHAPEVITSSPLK

Regarding “C. canimorsus DPP7 (Capnocytophaga canimorsus 5 dipeptidyl peptidase 7) with a C-terminal Strep-His tag (enzyme)”, the PT (prothrombin time) in factor deficient plasma amounted to 10 fold in assay [1] and 30% in assay [3]. In addition, in assay [2], the aPTT in factor deficient plasma came out at 2 fold.
